Experimental data as given in article PMC9541865, “Clinical Pharmacology of Insulin Aspart Biosimilar GP40071: Pharmacokinetic/Pharmacodynamic Comparability in Hyperinsulinemic Euglycemic Clamp Procedure” (Clinical Pharmacology in Drug Development, 2022).
Like-named read-outs stand apart in the source and are kept apart here.

How the values were obtained:
healthy male volunteers [1] = assay: Safety and tolerability (adverse events) in HEC study; format: in vivo, human; conditions: single s.c. 0.3 IU/kg, N = 26; for Number of adverse events (AEs): all transitory and mild, most probably related to the HEC procedure; for Tolerability of single dose: healthy male volunteers
Procedure: Safety evaluation. The safety and tolerability of both studied drugs were also assessed. Throughout the trial, adverse events (AEs) were monitored and all participants underwent physical examination, vital signs assessment, electrocardiogram (ECG) recording, and laboratory blood and urine testing.

[2] = Pharmacokinetics of insulin aspart in plasma during hyperinsulinemic euglycemic clamp (HEC); conditions: healthy male volunteers, N = 26, arithmetic mean (SD); for AUCins.0‐t: single s.c. 0.3 IU/kg into abdomen, ELISA double measurement; for AUCins.0‐t / Cins.max: 8-h HEC, plasma; for Cins.max: ELISA; for AUCins.0‐∞: extrapolated to infinity
Procedure: (§1) This was a phase 1, randomized, double‐blind, two‐center, two‐treatment, single‐dose, two‐period, crossover, 8‐hour HEC study in healthy subjects. The study was conducted simultaneously in 2018 at two clinical sites (Almazov National Medical Research Center, Saint Petersburg, Russia, and Endocrinology Research Centre, Moscow).
(§2) NovoRapid® Penfill® (Novo‐Asp), as a solution for injection (100 IU/mL), by NovoNordisk, Denmark was used as a reference drug. Both drugs were administered subcutaneously into the abdomen using a BD Micro‐Fine 0.5‐mL insulin syringe with an 8‐mm needle. In this study, the dose of insulin aspart was 0.3 IU/kg for each formulation.
(§3) The next morning HEC was performed. Subjects remained in a supine position for the entire procedure. The time of dosing of the investigated insulins was defined as a zero point. Plasma glucose levels were measured to confirm euglycemia state 60 and 30 minutes prior to the dosing. The target value for blood glucose concentrations during the clamp procedure was defined as 90 mg/100 mL and the acceptable glycemic range in this study was set as 80–100 mg/100 mL. After subcutaneous injection of the investigated insulin, intravenous 20% glucose infusion was started once the baseline plasma glucose level decreased by more than 5 mg/100 mL. The glucose infusion rate (GIR) was controlled and adjusted manually using an infusion pump (Infusomat fmS, B. Braun Melsungen AG, Germany) to maintain plasma glucose concentrations of 80–100 mg/100 mL. HEC lasted 8 hours, and during the entire procedure glycemia was measured using a glucose analyzer (StatStrip, Nova Biomedical, USA) and GIR was adjusted accordingly every 5 minutes. The GIR was documented throughout the procedure and was used to reflect the activity of insulin. Glucose infusion could be discontinued earlier if GIR equaled 0 mg/kg/min at three consecutive measurements 6 hours or more after dosing. Blood samples for PK assessment were obtained for 8 hours postdose.
(§4) Pharmacokinetics. During each HEC 21 samples (each 9 mL of venous blood) were collected from all participants at regular time intervals to assess the concentrations of insulin aspart and C‐peptide: 60, 30, 0 minutes predose and 10, 20, 30, 40, 50, 60, 75, 90, 105, 120, 135, 150, 165, 240, 300, 360, 420, 480 minutes postdose. To obtain plasma samples for the bioanalytical part the blood samples were centrifuged at 3000 rpm for 15 minutes, then the supernatant was transferred into clean tubes. Insulin determination in plasma was performed by a validated enzyme immunoassay (EIA) method using a Personal Lab (Adaltis S.r.l., Italy) analyzer. A Mercodia Iso‐Insulin ELISA kit (Mercodia, Sweden) was used to measure total endogenous human insulin and insulin aspart concentrations and then a Mercodia Insulin ELISA kit (Mercodia) was used to quantify specifically the endogenous human insulin concentration. […] The validated lower (LLOQ) and upper (ULOQ) levels of quantification for total insulin assay were 10.00 and 300.00 μIU/mL, and for human insulin assay they were 10.00 and 150.00 μIU/mL.

[3] = human, in vivo, sc
Procedure: as §1, §2, §3, §4

healthy male volunteers [4] = assay: Pharmacodynamics (glucose infusion rate) in hyperinsulinemic euglycemic clamp (HEC); format: in vivo, human; conditions: N = 26, single s.c. 0.3 IU/kg, arithmetic mean (SD); for AUCGIR0‐t / GIRmax: 8-h HEC
Procedure: The PD effect of insulin aspart was evaluated using the manual euglycemic clamp technique, as described previously[7] with adaptations described below.
Before the clamp procedure. Subjects were hospitalized approximately 12 hours before each drug administration. After the baseline physical examination, vital signs measurements, alcohol breath test, and urine drug testing were performed to confirm compliance with the study restrictions. All participants were given a standardized light meal in the evening before the clamp. Subjects fasted for at least 10 hours before the dosing and remained fasted until the end of the clamp.
During the clamp procedure. The next morning HEC was performed.
Pharmacodynamics. As described above, blood glucose values determined every 5 minutes during HEC were used to measure and manually adjust GIR.

| Substance | Cases of hyperbilirubinemia (healthy male volunteers [1]) | Cases of phlebitis (healthy male volunteers [1]) | Number of adverse events (AEs) (healthy male volunteers [1]) | Tolerability of single dose (healthy male volunteers [1]) | AUCins.0‐t [2] | Cins.max ([2]; single s.c. 0.3 IU/kg) | tmax ([2]; single s.c. 0.3 IU/kg) | AUCins.0‐∞ ([2]; single s.c. 0.3 IU/kg) | t1/2 [3] | AUCGIR0‐t (healthy male volunteers [4]) | GIRmax (healthy male volunteers [4]) | tGIRlag (onset of action) (healthy male volunteers [4]) | tGIRmax (time to reach GIRmax) (healthy male volunteers [4]) | t1/2 ([2]; single s.c. 0.3 IU/kg) |
| --- | --- | --- | --- | --- | --- | --- | --- | --- | --- | --- | --- | --- | --- | --- |
| insulin aspart [GP‐Asp] | One | one | two | well tolerated | 750.86 (163.48) μLU/mL × h | 286.95 (86.53) μLU/ml/mL | 1.51 (0.53) h | 776.90 (166.33) μLU/ml/mL × h | 0.88 (0.31) h | 43.48 (12.43) mg/kg × 60 min | 11.21 (3.43) mg/kg/min | 0.48 (0.21) | 2.75 (0.94) |  |
| insulin aspart [Novo‐Asp] | One | one | two | well tolerated | 716.37 (199.60) μLU/mL × h | 245.58 (72.70) μLU/ml/mL | 1.37 (0.49) h | 745.70 (209.72) μLU/ml/mL × h |  | 42.81 (13.28) mg/kg × 60 min | 10.65 (3.3) mg/kg/min | 0.44 (0.18) | 2.82 (1.02) | 0.93 (0.36) h |
